Test results: paper PMC7416112 (Structure(London, England:1993), 2020)

How the values were obtained:
Test in all cases: BLI
[1] = biological target: BG505 SOSIP.v4.1-2XStrep N332 N392Q (HIV-1 (BG505))
[2] = biological target: BG505 SOSIP.v4.1-2XStrep N332 N295Q (HIV-1 (BG505))
[3] = biological target: BG505 SOSIP.v4.1-2XStrep N332 N339Q (HIV-1 (BG505))
[4] = biological target: BG505 SOSIP.v4.1-2XStrep N332 N386Q (HIV-1 (BG505))
[5] = biological target: BG505 SOSIP.v4.1-2XStrep (N332) (HIV-1 (BG505))
[6] = biological target: BG505 SOSIP.v4.1-2XStrep N332 N363Q (HIV-1 (BG505))
[7] = biological target: BG505 SOSIP.v4.1-2XStrep T332 (HIV-1 subtype A, BG505, UniProt Q2N0S6, stabilised); settings: both partners purified

Question: What does the source list for 2G12 Fab2?
Answer: Kd [1]: 16.8 nM; Kd [2]: 11.4 nM; Kd [3]: 7.35 nM; Kd [4]: 3.15 nM; Kd [5]: 4.25 nM; Kd [6]: 3.99 nM

B1: 2G12 Fab2 (Fab, V domains shown)
VH: EVQLVESGGGLVKAGGSLILSCGVSNFRISAHTMNWVRRVPGGGLEWVASISTSSTYRDYADAVKGRFTVSRDDLEDFVYLQMHKMRVEDTAIYYCARKGSDRLSDNDPFDAWGPGTVVTVSP
VL: DVVMTQSPSTLSASVGDTITITCRASQSIETWLAWYQQKPGKAPKLLIYKASTLKTGVPSRFSGSGSGTEFTLTISGLQFDDFATYHCQHYAGYSATFGQGTRVEIK
notes: also called 2G12 bnAb; copies: 2 + 2
Question: With B1 as the molecule, how does the Kd [7] read?
Answer: Its Kd is 22.9 nM.

Question: What about the koff [7] of the same molecule?
Answer: Its koff is 0.00558 s⁻¹.

Question: What about the kon [7] of the same molecule?
Answer: Its kon is 244000 M⁻¹ s⁻¹.
